Assay [1] deals with IL-8 receptors on human neutrophils (human). Put plainly: inhibition of 125I-IL-8 binding to human neutrophils; peptide concentration not given.
Assay [2] has the same target. The experiment in a line: cell-based or functional assay.
Assay [3] concerns the target MGSA/GROα receptors on Hs 294T melanoma cells. The experiment in a line: cell-based or functional assay.
Assay [4] deals with MGSA/GROα receptors on RPMI-7951 melanoma cells. Put plainly: cell-based or functional assay.
Assay [5] concerns the target IL-8 receptors on human neutrophils (human). The experiment in a line: inhibition of IL-8 binding to human neutrophils.
Assay [6] concerns the target MGSA/GROα receptors on Hs 294T melanoma cells. The experiment in a line: inhibition of 1 nM 125I-MGSA/GROα binding to Hs 294T cells.
In assay [7] the target is MGSA/GROα receptors on RPMI-7951 melanoma cells. The experiment in a line: inhibition of 1 nM 125I-MGSA/GROα binding to RPMI-7951 cells.
Assay [8] concerns the target IL-8 receptors on human neutrophils (human). The experiment in a line: inhibition of 125I-IL-8 binding to human neutrophils, peptide 10 µM.
Assay [9] shares this target. The experiment in a line: inhibition of 125I-IL-8 (10^-12 M) binding to human neutrophils, peptide 100 µM.
Assay [10] has the same target. The experiment in a line: inhibition of binding of 1 nM IL-8 to human neutrophils, 90 min on ice (FIG. 10).
Assay [11] has the same target. The experiment in a line: inhibition of 1 nM 125I-IL-8 binding to human neutrophils, 90 min 4 °C, average of replicates.
Assay [12] shares this target. Put plainly: inhibition of 125I-IL-8 binding to human neutrophils, assuming purely competitive single site model.
The target is the same in assay [13]. Put plainly: inhibition of 125I-IL-8 binding to human neutrophils, method of Example I; reference row of the heptamer table.
Assay [14] shares this target. The experiment in a line: inhibition of 125I-IL-8 binding to human neutrophils.
The target is the same in assay [15]. The experiment in a line: inhibition of 125I-IL-8 binding to human neutrophils, method of Example I; D-amino acid heptamer series.
Assay [16] has as its system MGSA/GROα receptors on Hs 294T melanoma cells. Put plainly: Binding of 125I-MGSA/GROα to Hs 294T melanoma cells. Set-up: species or system human. Here is the method:
(§1) FIG. 11A. The binding of ^125I-labeled MGSA/GROα to melanoma cell lines, Hs 294T and RPMI-7951. The melanoma cells, 1×10^5, were incubated with 1 nM ^125I-MGSA/GROα in the presence of various concentrations of unlabeled MGSA/GROα. Binding inhibition curve with Hs 294T (closed circles) and RPMI-7951 (open circles). The lines shown in the graph are the best fit curves calculated using the London II computer program.
(§2) FIG. 13. The effect of Antileukinate on the binding of radiolabeled MGSA/GROα to the melanoma cell lines. The melanoma cells, Hs 294T (closed circles) and RPMI-7951 (open circles), were incubated with 1 nM ^125I-MGSA/GROα in the presence of different concentrations of Antileukinate. The lines shown in the graph are the best fit curves calculated using the London II computer program.
(§3) Recombinant human MGSA/GROα and IL-8 were purchased form Pepro Tech Inc. (Rocky Hill, N.J.) and radioactively labeled using ^125I-labeled Bolton-Hunter reagent (DuPont-NEN, Wilmington, Del.) (Bolton and Hunter, 1973). The labeled proteins were isolated using Sephadex G-25 column (Column PD-10, Pharmacia) pre-equilibrated with PBS containing 0.1% gelatin and stored at −70° C. after the addition of 1% bovine serum albumin.
(§4) Binding studies with melanoma cell lines were performed by the method of Horuk and colleagues (Horuk et al., 1993). Briefly, the cells (1×10^5 cells/well) in 24-well plates were washed two times with Hank's Balanced Salt Solution and incubated with ^125I-labeled MGSA/GROα or IL-8 in the buffer containing 1% bovine serum albumin at 4° C. for 3 hr. The incubation was terminated by vacuum aspiration of the supernatant. The cells were washed three times in binding buffer, solubilized by the addition of 200 μl of 1% SDS, and transferred to vials for counting. The non-specific binding was estimated by measuring the binding in the presence of 100-fold excess of non-labeled ligand. The binding parameters were calculated using the Lundon II computer program (Lundon Software Inc., Chagrin Falls, Ohio).

Assay [17] has as its system MGSA/GROα receptors on RPMI-7951 melanoma cells. The experiment in a line: Binding of 125I-MGSA/GROα to RPMI-7951 melanoma cells. To be noted: RPMI-7951. Here is the method: as §1, §2, §3, §4
The target in assay [18] is IL-8 receptors on human neutrophils (human). Put plainly: saturation binding of 125I-IL-8 to human neutrophils, Lundon I, one-site model, no peptide.
Assay [19] deals with Receptor 1 (Table 3; class of IL-8 receptors on human neutrophils, two-site model, Lundon II) (human). Put plainly: displacement of 1 nM 125I-IL-8 by unlabeled IL-8 on human neutrophils, Lundon II two-site model, IL-8 alone.
The target in assay [20] is Receptor 2 (Table 3; class of IL-8 receptors on human neutrophils, two-site model, Lundon II) (human). The description is as above.
The target of assay [21] is Receptor 1 (Table 3; class of IL-8 receptors on human neutrophils, two-site model, Lundon II) (human). Put plainly: displacement of 1 nM 125I-IL-8 by unlabeled IL-8 on human neutrophils, Lundon II two-site model, +10 µM Ac-RRWWCR.
Assay [22] deals with Receptor 2 (Table 3; class of IL-8 receptors on human neutrophils, two-site model, Lundon II) (human). The assay is described as above.
Assay [23] concerns the target Receptor 1 (Table 2; class of IL-8 receptors on human neutrophils, two-site model, Lundon I) (human). The experiment in a line: saturation binding of 125I-IL-8 to human neutrophils, Lundon I, two-site model, in presence of 10 µM Ac-RRWWCR-NH2.
Assay [24] concerns the target Receptor 2 (Table 2; class of IL-8 receptors on human neutrophils, two-site model, Lundon I) (human). Described as above.
Assay [25] deals with Receptor 1 (Table 2; class of IL-8 receptors on human neutrophils, two-site model, Lundon I) (human). Put plainly: saturation binding of 125I-IL-8 to human neutrophils, Lundon I, two-site model, in presence of 20 µM Ac-RRWWCR-NH2.
In assay [26] the target is Receptor 2 (Table 2; class of IL-8 receptors on human neutrophils, two-site model, Lundon I) (human). Described as above.
In assay [27] the target is Receptor 1 (Table 2; class of IL-8 receptors on human neutrophils, two-site model, Lundon I) (human). The experiment in a line: saturation binding of 125I-IL-8 to human neutrophils, Lundon I, two-site model, in presence of 40 µM Ac-RRWWCR-NH2.
For assay [28], the target named is Receptor 2 (Table 2; class of IL-8 receptors on human neutrophils, two-site model, Lundon I) (human). The assay is described as above.
Assay [29] has as its target MGSA/GROα receptors on Hs 294T melanoma cells. The experiment in a line: 1 nM 125I-MGSA/GROα displaced by unlabeled MGSA/GROα on Hs 294T cells, Lundon II.
Assay [30] addresses MGSA/GROα receptors on RPMI-7951 melanoma cells. Put plainly: 1 nM 125I-MGSA/GROα displaced by unlabeled MGSA/GROα on RPMI-7951 cells, Lundon II.

Values joined by “and” are separate entries in the source; they are usually repeats but may differ in a detail not shown here. Equal values may be shown once.

The results in this text go back to patent US6355619B1, “Peptide tumor cell growth inhibitors” (Board of Regents, The University of Texas System, priority 1996, dated 2002).

Chain of Recombinant human IL-8 (72 amino acids) (P10145 28-99 limits assumed): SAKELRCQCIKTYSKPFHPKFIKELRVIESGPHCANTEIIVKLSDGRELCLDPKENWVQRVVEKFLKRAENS
Chain of Recombinant human MGSA/GROα (P09341 35-107): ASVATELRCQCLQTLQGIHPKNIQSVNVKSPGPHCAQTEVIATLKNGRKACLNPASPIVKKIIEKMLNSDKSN

For Ac-KELRCQ-NH2 (peptide), the % Binding Inhibition in assay [1] is -0.4%.

As for Ac-RRWWCR-NH2 (peptide), the chemotaxis of neutrophils stimulated with 10 nM of IL-8 in [2] was determined as 50 µM. This substance also returned an enzyme release from neutrophils stimulated by IL-8 in [2] of 0.8 µM. The β-glucuronidase release stimulated by 100 nM of IL-8 in assay [2] was determined as 2 µM. Moreover, the growth of Hs 294T cells (cell number after 72 hr) in [3] is 18 µM and 10 µM. Moreover, the growth of melanoma cells in culture in assay [3] and in assay [4] was 100 µM in each case. The growth of RPMI-7951 melanoma cells (cell number after 72 hr) in assay [4] was 31 µM. This substance showed a fold effectiveness against the non-acetylated peptide in assay [5] of 2 fold. For the same substance, the concentration for a half-maximal effect (EC50) in [6] was found to be 1000 nM; in assay [7], 1000 nM; in assay [10] it was 25000 nM; in assay [11], 13700 nM. Besides, in assay [8], the % inhibition came out at 20%. In addition, the % INHIB. in assay [9] and in [13] was 112% in each case. Further, the % Binding Inhibition in assay [1] is 98.6%. This substance also registered a Ki in assay [12] of 10000 nM.

For the substance Ac-rrwwcrc-NH2 (peptide), the fold potency against Ac-rrwwcr-NH2 (SEQ ID NO:1) in [14] was determined as 4 fold. The substance further displayed a % of IL-8 binding prevented in assay [8] of 80%. For the same substance, the % INHIB. in assay [15] worked out at 108%.

Consider “MGSA/GROα: Recombinant human MGSA/GROα (Pepro Tech Inc.), 73 amino acid α-chemokine”, for which, in assay [16], the Kd is around 6 nM and the “maximal binding (Bmax) of MGSA/GROα” value worked out at 11 fmole/10^5 cells. In addition, in [17], the Kd is around 3 nM and the “maximal binding (Bmax) of MGSA/GROα” value was determined as 15 fmole/10^5 cells.

Consider “Recombinant human IL-8 (72 amino acids) (from UniProt P10145 28-99) (ligand)”, for which the Bmax (fmole/10^6 cells) in [18] amounted to 174; in assay [19], 38.8; in [20], 68.8; in [21] it was 11.2; in [22], 75.6; in [23], 91.9. Also, the Bmax (fmole/10^6 cells) in assay [24] was determined as 90.9; in assay [25] it was 90.9; in assay [26], 76.2; in assay [27], 82; in [28], 44.2. The equilibrium dissociation constant (Kd) in assay [18] is 1.3 nM; in assay [19], 0.03 nM; in [20] it was 0.67 nM; in assay [21], 1.23 nM; in assay [22], 0.76 nM; in [23], 68 nM. Moreover, the Kd in [25] is 42.8 nM; in assay [26] it was 0.8 nM; in assay [27] it was 13 nM; in [28], 1.3 nM.

For the substance “Recombinant human MGSA/GROα (from UniProt P09341 35-107) (ligand)”, in assay [3], the reversal of the inhibition of Hs 294T growth by 50 µM Antileukinate came to 50 nM. In [29], this substance registered a Kd of 6 nM and a maximal binding (Bmax) (fmole/10^5 cells) of 11. Moreover, in [30], the Kd was 3 nM and the maximal binding (Bmax) (fmole/10^5 cells) was found to be 15.

In turn, rrwwcrn (peptide) gave a % INHIB. in [15] of 111%.

In turn, rrwwcrp (peptide) yielded a % INHIB. in assay [15] of 87.3%.

rrwwcrq (peptide) showed a % INHIB. in assay [15] of 89.2%.

For rrwwcrr (peptide), the % INHIB. in assay [15] was 103%.

Regarding rrwwcrs (peptide), in assay [15], the % INHIB. worked out at 70.4%.

Regarding rrwwcrt (peptide), the % INHIB. in assay [15] was determined as 56.3%.

rrwwcrv (peptide) gave a % INHIB. in assay [15] of 89.2%.

Substance rrwwcrw (peptide) had a % INHIB. in assay [15] of 106%.

The substance rrwwcry (peptide) came in with a % INHIB. in assay [15] of 85.4%.

What is called EC50 is the concentration that produces a half-maximal response. Lower therefore signals higher potency in that assay. A word on the % inhibition: it is the drop in the measured response relative to a control, in per cent. A high value points to strong suppression. By Ki is commonly meant the equilibrium dissociation constant of an inhibitor or competing ligand from its target. Low values mean higher affinity, high ones lower affinity. For orientation: Kd means the equilibrium constant for the complex coming apart.
